The record followed here is US20210079109A1 (Regeneron, published 2021).

The target of experiment [1] is T1, human CD63 (human, UniProt P08962 2-238).
T1 construct: stably transfected in NIH3T3/hCD63; The cell line is named under assay; also called hCD63
T1 sequence: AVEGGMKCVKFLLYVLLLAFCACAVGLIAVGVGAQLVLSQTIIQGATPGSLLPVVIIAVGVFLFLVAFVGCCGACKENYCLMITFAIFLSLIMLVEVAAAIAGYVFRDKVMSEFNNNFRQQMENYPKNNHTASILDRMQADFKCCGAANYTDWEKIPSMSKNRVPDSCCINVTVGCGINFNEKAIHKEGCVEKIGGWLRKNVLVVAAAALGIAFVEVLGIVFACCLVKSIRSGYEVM
Briefly: ECL, LNCAP cells. The method, then: (§1) LNCAP cells were determined to have a lower human CD63 copy number than U87MG cells. Non-transfected NIH3T3 cells, which have no detectable expression of human CD63 by fluorescence activated cell sorting (FACS), were included as a negative control.
(§2) Briefly, cell lines were rinsed once in PBS buffer without Ca²⁺/Mg²⁺ and incubated for 10 minutes at 37° C. with Enzyme Free Cell Dissociation Solution (Millipore, Cat #S-004-C) to detach the cells. Cells were then washed once with PBS with Ca²⁺/Mg²⁺ and counted with a Cellometer™ Auto T4 cell counter (Nexcelom Bioscience, LLC). Approximately 2.0×10⁴ NIH3T3/hCD63, LNCAP, U87MG or NIH3T3 cells were seeded separately onto 96-well carbon electrode plates […]) and were then incubated for one hour at 37° C. Nonspecific binding sites were blocked with 2% BSA (w/v) in PBS with Ca²⁺/Mg²⁺ for one hour at room temperature (RT). Solutions containing anti-CD63 antibodies or isotype control antibodies at a range of concentrations (1.7 pM to 100 nM) in 0.5% BSA (w/v) in PBS with Ca²⁺/Mg²⁺, as well as control buffer alone, were then added in duplicate to the plate-bound NIH3T3/hCD63, LNCAP, U87MG or NIH3T3 cells and incubated for one hour at RT. Plates were subsequently washed to remove unbound antibodies using an AquaMax2000 plate washer with a cell washing head (MDS Analytical Technologies). […] Plates were washed and then incubated with Read Buffer (MSD, Cat #R92TD-2) according to the manufacturer's instructions. Luminescent signals were measured using a SECTOR Imager (MSD).

Experiment [2] addresses T2, recombinant human CD63 extracellular loop 2 expressed with a C-terminal Myc-Myc-hexahistidine (human).
T2 construct: also called hCD63 EC loop 2-MMH; human CD63 EC loop 2-MMH
Briefly: SPR Biacore, mAb captured, 25C. The method, then: (§3) Equilibrium dissociation constants (KD) for different CD63 (EC2) loop reagents binding to purified anti-CD63 monoclonal antibodies were determined using a real-time surface plasmon resonance based Biacore T200 biosensor or Biacore 2000 biosensor. All binding studies were performed in 10 mM HEPES, 150 mM NaCl, 3 mM EDTA, and 0.05% v/v Surfactant Tween-20, pH 7.4 (HBS-ET) running buffer at 25° C. and 37° C. The Biacore CMS sensor chip surface was first derivatized by amine coupling with either a rabbit anti-mouse Fc specific polyclonal antibody (GE Healthcare, Cat #BR100838) or an anti-human Fab kit (GE Healthcare, Cat #28958325) to capture anti-CD63 monoclonal antibodies. […] The association rate (Kₐ) and dissociation rate (kd) were determined by fitting the real-time binding sensorgrams to a 1:1 binding model with mass transport limitation using Scrubber 2.0c curve-fitting software. Binding dissociation equilibrium constant (KD) and dissociative half-life (t½) were calculated from the kinetic rates as: […]
(§4) Binding kinetics parameters for human CD63 EC loop 2 protein binding to different anti-CD63 monoclonal antibodies of the invention at 25° C. and 37° C. are shown in Tables 6 through 9.

Experiment [3] has as its target T3, recombinant human CD63 extracellular loop 2 expressed with a C-terminal human Fc tag (human).
T3 construct: also called hCD63 EC loop 2-hFc; human CD63 EC loop 2-Fc
Briefly: SPR Biacore, mAb captured, 25C. The method, then:
as §3, §4
Background: Surface plasmon resonance follows binding to a sensor surface in real time, without labels.

The target in experiment [4] is T2, recombinant human CD63 extracellular …. Briefly: SPR Biacore, mAb captured, 37C. As to the method:
as §3, §4

For experiment [5], the target named is T3, recombinant human CD63 extracellular …. Put plainly: SPR Biacore, mAb captured, 37C. The method, then:
as §3, §4

For experiment [6], the target named is T1, human CD63. Briefly: ECL, NIH3T3/hCD63 cells. As to the method:
as §1, §2

Experiment [7] concerns the target T1, human CD63. Put plainly: ECL, U87MG cells. As to the method:
as §1, §2

T2 sequence (chain, as listed by the source limits assumed): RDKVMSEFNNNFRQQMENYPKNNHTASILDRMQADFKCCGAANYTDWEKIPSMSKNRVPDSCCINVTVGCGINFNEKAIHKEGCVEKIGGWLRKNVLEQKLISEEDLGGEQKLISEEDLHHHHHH
T3 sequence (chain, as listed by the source limits assumed): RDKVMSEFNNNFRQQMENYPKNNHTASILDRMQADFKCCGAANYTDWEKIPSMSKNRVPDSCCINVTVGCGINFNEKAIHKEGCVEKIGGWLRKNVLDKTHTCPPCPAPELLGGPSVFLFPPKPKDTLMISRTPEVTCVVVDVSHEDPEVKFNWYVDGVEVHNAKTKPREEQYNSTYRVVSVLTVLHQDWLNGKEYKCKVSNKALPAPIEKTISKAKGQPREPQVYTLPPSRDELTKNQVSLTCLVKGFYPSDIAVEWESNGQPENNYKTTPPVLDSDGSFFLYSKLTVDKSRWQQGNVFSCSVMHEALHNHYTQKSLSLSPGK

B1: H1M12388N (antibody, V domains shown)
VH: QVQLEESGGGVVKAGGSLRLSCAASGFTFSDYYINWIRQAPGKGLEWVSYINNGGYTIYYADSVKGRFTMSRDNAKNSVYLQMNGLRAEDTAFYYCVRDPRSYYGFDYWGQGTLVTVSS
VL: DIQMTQSPSSLSASVGDRVTITCRASQSISRFLHWYQQKPGKAPKLLIYGASSLQSGVPSRFSGSGSGTDFTLTISTLQPEDFATYYCQQSYSTPPITFGQGTRLEIK
For B1, in the experiment with human CD63 [1], a half-maximal response (EC50) required 250 pM and the “binding ratio at 3.7 nM vs NIH3T3” value was determined as 31 fold. In experiment [2], the “100 nM Ag Bound (RU)” value turned out to be 59 RU, the Kd is 720 pM, the koff was 0.000587 s⁻¹ and the kon came out at 815000 M⁻¹ s⁻¹. Besides, in experiment [2], the t1/2 came to 20 min. In experiment [3], the “100 nM Ag Bound (RU)” value was 131 RU, the Kd stood at 238 pM, the koff was 0.000173 s⁻¹ and the kon is 728000 M⁻¹ s⁻¹. The t1/2 in experiment [3] was determined as 67 min. For the same molecule, in experiment [4], the “100 nM Ag Bound (RU)” value amounted to 60 RU, the Kd was 5020 pM, the koff came to 0.00327 s⁻¹ and the kon is 651000 M⁻¹ s⁻¹. In experiment [4], the t1/2 was determined as 4 min. In experiment [5], the “100 nM Ag Bound (RU)” value was found to be 158 RU, the Kd came to 863 pM, the koff came to 0.000887 s⁻¹ and the kon came to 1.03e+06 M⁻¹ s⁻¹. Moreover, in experiment [5], the t1/2 was found to be 13 min. In addition, in the experiment with human CD63 [6], the response was half-maximal at 520 pM (EC50) and the “binding ratio at 3.7 nM vs NIH3T3” value was 434 fold. In addition, in the experiment with human CD63 [7], the EC50 was found to be 300 pM and the “binding ratio at 3.7 nM vs NIH3T3” value was found to be 284 fold.

B2: H1M12386N (antibody, V domains shown)
VH: QVQLEESGGGVVKAGGSLRLSCVASGFTFSDYYINWIRQAPGKGLEWVSYINNGGYTIYYADSVKGRFTMSRDNAKNSVYLEMNGLRAEDTAFYYCVRDPRSYYGFDYWGQGTLVTVSS
VL: DIQMTQSPSSLSASVGDRVTITCRASQSISSYLNWNQQKPGKAPKLLIYVASSLQSGVPSRFSGSGSGTDFTLTISGLQPEDFAPYYCQQSYITPPITFGQGTRLDIK
For B2, the EC50 with human CD63 [1] came out at 290 pM; with human CD63 [6] it was 520 pM; with human CD63 [7], 310 pM. Further, the “binding ratio at 3.7 nM vs NIH3T3” value with human CD63 [1] came to 16 fold; with human CD63 [6], 220 fold; with human CD63 [7], 129 fold. The “100 nM Ag Bound (RU)” value in experiment [2] was found to be 65 RU; in experiment [3], 160 RU; in experiment [4], 65 RU; in experiment [5], 170 RU. Besides, the Kd in experiment [2] is 676 pM; in experiment [3] it was 173 pM; in experiment [4], 3610 pM; in experiment [5] it was 685 pM. Further, the koff in experiment [2] was determined as 0.000365 s⁻¹; in experiment [3], 0.000113 s⁻¹; in experiment [4], 0.00235 s⁻¹; in experiment [5], 0.000631 s⁻¹. The kon worked out at 540000 M⁻¹ s⁻¹ in experiment [2], 654000 M⁻¹ s⁻¹ in experiment [3], 650000 M⁻¹ s⁻¹ in experiment [4] and 921000 M⁻¹ s⁻¹ in experiment [5]. For the same molecule, the t1/2 was found to be 32 min in experiment [2], 102 min in experiment [3], 5 min in experiment [4] and 18 min in experiment [5].

B3: H2M12387N (antibody, V domains shown)
VH: QVQLEESGGGVVKAGGSLRLSCAASGFTFSDYYMNWIRQAPGKGLEWVSYINNGGYTIYYADSVKGRFTMSRDNAKNSVYLQMNGLRAEDTAFYYCVRDPRSYYGFDYWGQGTLVIVSS
VL: DIQMTQSPSSLSASVGDRVTITCRASQSISRFLHWYQQKPGKAPKLLIYGASSLQSGVPSRFSGSGSGTDFTLTISSLQPEDFATYYCQQSYSTPPITFGQGTRLEIK
notes: also called H2aM12387N
Turning to B3, in the experiment with human CD63 [1], the EC50 stood at 150 pM and the “binding ratio at 3.7 nM vs NIH3T3” value came out at 18 fold. Also, in experiment [2], the “100 nM Ag Bound (RU)” value turned out to be 74 RU, the Kd is 994 pM, the off-rate constant (koff) is 0.00054 s⁻¹ and the kon came out at 543000 M⁻¹ s⁻¹. The t1/2 in experiment [2] was found to be 21 min. In experiment [3], the “100 nM Ag Bound (RU)” value turned out to be 164 RU, the Kd is 129 pM, the koff came to 0.00011 s⁻¹ and the kon was found to be 854000 M⁻¹ s⁻¹. The t1/2 in experiment [3] worked out at 105 min. Moreover, in experiment [4], the “100 nM Ag Bound (RU)” value came out at 77 RU, the Kd worked out at 5210 pM, the koff worked out at 0.00354 s⁻¹ and the kon was determined as 679000 M⁻¹ s⁻¹. Besides, the t1/2 in experiment [4] worked out at 3 min. Besides, in experiment [5], the “100 nM Ag Bound (RU)” value was 196 RU, the Kd was 596 pM, the koff amounted to 0.000657 s⁻¹ and the kon is 1.1e+06 M⁻¹ s⁻¹. In addition, the t1/2 in experiment [5] was 18 min. In the experiment with human CD63 [6], it took 390 pM to reach a half-maximal effect (EC50) and the “binding ratio at 3.7 nM vs NIH3T3” value is 228 fold. For the same molecule, in the experiment with human CD63 [7], the response was half-maximal at 290 pM (EC50) and the “binding ratio at 3.7 nM vs NIH3T3” value was 172 fold.

B4: H2M12394N (antibody, V domains shown)
VH: QVQLQESGPGLVKPSETLSLTCTVSGGSISSYYWNWIRQSPGKGLEWIGYTKKRSTNYNPSLRSRVTISEDTSKNQFSLKMSSVTAADTAVYYCAKMGWGSHAFDIWGQGTMVTVSS
VL: not shown
notes: also called H2aM12394N
For the molecule B4, in the experiment with human CD63 [1], the EC50 worked out at 750 pM and the “binding ratio at 3.7 nM vs NIH3T3” value was determined as 4 fold. Further, in experiment [2], the “100 nM Ag Bound (RU)” value came to 27 RU, the Kd stood at 9360 pM, the koff was 0.000553 s⁻¹ and the kon amounted to 59100 M⁻¹ s⁻¹. Further, in experiment [2], the t1/2 came out at 21 min. Moreover, in experiment [3], the “100 nM Ag Bound (RU)” value came to 59 RU, the Kd came to 1760 pM, the koff amounted to 0.000144 s⁻¹ and the kon is 81800 M⁻¹ s⁻¹. Besides, in experiment [3], the t1/2 stood at 80 min. Moreover, in experiment [4], the “100 nM Ag Bound (RU)” value came to 19 RU, the Kd came out at 76700 pM, the koff came to 0.00277 s⁻¹ and the kon amounted to 36200 M⁻¹ s⁻¹. Moreover, in experiment [4], the t1/2 came out at 4 min. Besides, in experiment [5], the “100 nM Ag Bound (RU)” value amounted to 67 RU, the Kd was 1540 pM, the koff came out at 0.000504 s⁻¹ and the kon was found to be 327000 M⁻¹ s⁻¹. Moreover, the t1/2 in experiment [5] was determined as 23 min. Moreover, in the experiment with human CD63 [6], the half-maximal effective concentration (EC50) is 380 pM and the “binding ratio at 3.7 nM vs NIH3T3” value was 61 fold. Besides, in the experiment with human CD63 [7], the EC50 is 1400 pM and the “binding ratio at 3.7 nM vs NIH3T3” value stood at 50 fold.

B5: H1M12366N (antibody, V domains shown)
VH: QVQLQESGPGLVKPSETLSLTCTVSGGSISSYYWNWIRQSPEKGLEWIGYIYISGTTNYNPSLKSRVTISVDTFKNQFSLKLNSVTAADTAVYYCARMGLGREAFDIWGQGTMVTVSS
VL: not shown
notes: also called H3M12366N
Turning to B5, the EC50 was found to be 1800 pM with human CD63 [1], 830 pM with human CD63 [6] and 2000 pM with human CD63 [7]. Moreover, the “binding ratio at 3.7 nM vs NIH3T3” value with human CD63 [1] is 7 fold; with human CD63 [6], 310 fold; with human CD63 [7], 107 fold.

Usually EC50 stands for the concentration that produces a half-maximal response. The low end stands for an effect from little substance, the high end for a need for much substance. By Kd is commonly meant the constant that tells how readily two partners part at equilibrium. What is called koff is the first-order rate constant of dissociation. Broadly, the kon is the second-order rate constant of association.
